First the molecules themselves.
T1: C/EBP bZIP domain (GCN4-C/EBP chimeric protein) (C/EBP: rat liver; GCN4: yeast)
T1 construct: Made in E. coli; forms a homodimer; also called C/EBP-C/EBP; wild type C/EBP
T1 chain: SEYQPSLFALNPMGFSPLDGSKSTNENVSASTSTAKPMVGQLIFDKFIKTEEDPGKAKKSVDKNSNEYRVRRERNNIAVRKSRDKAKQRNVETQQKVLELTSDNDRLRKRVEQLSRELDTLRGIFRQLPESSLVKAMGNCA

T2: CREB (unmodified) (UniProt P16220 254-327)
T2 construct: also called CREB protein
T2 sequence (looked up): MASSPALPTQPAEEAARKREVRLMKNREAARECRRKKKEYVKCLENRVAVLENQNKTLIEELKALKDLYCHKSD

B1: 0heptadMax (dimerization domain of Max without an acidic extension) (designed binder)
chain: ASMTGGQQMGRDPDLEELEDSFHSLRDSVPSLQGEKASRAQILDKATEYIQYMRRKNHTHQQDIDDLKRQNALLEQQVRALEKARSSAQLQT
notes: domain: dimerization domain; also called OheptadMax
B2: 3heptad-F with the DP-D N-terminal cap (designed binder)
chain: ASMTGGQQMGRDPDLARENEELEKEAEELEQENAELEQEVLELESRNDRLRKEVEQLERELDTLRGIFRQLPESSLVKAMGNCA
notes: Built from the statement that DP-D replaces DP-GGG; also called DP-D cap; DPD cap
B3: 3heptad-C/EBP (three heptad acidic extension appended onto the C/EBP leucine zipper) (designed binder)
chain: ASMTGGQQMGRDPGGGLARENEELEKEAEELEQENAELEQKVLELTSDNDRLRKRVEQLSRELDTLRGIFRQLPESSLVKAMGNCA
B4: 2heptad-F (designed binder)
chain: ASMTGGQQMGRDPGGGLEKEAEELEQENAELEQEVLELESRNDRLRKEVEQLERELDTLRGIFRQLPESSLVKAMGNCA
B5: GBF-C/EBP chimeric protein (other)
chain: PVKDERELKRQKRKQSNRESARRSRLRNEAECEQTQQKVLELTSDNDRLRKRVEQLSRELDTLRGIFRQLPESSLVKAMGNCA
B6: c-Fos (unmodified) (other)
chain: PDKVEQLSPEEEEKRRIRRERNKMAAAKCRNRRRELTDTLQAETDQLEDEKSALQTEIANLLKEKEKLEFILAAHRPACKIP
notes: also called human c-Fos protein
B7: 4heptad-F (designed binder)
chain: ASMTGGQQMGRDPGGGLEQRAEELARENEELEKEAEELEQENAELEQEVLELESRNDRLRKEVEQLERELDTLRGIFRQLPESSLVKAMGNCA
notes: also called 4heptad-F zipper protein
B8: 3heptad-F with the DP- N-terminal cap (designed binder)
chain: ASMTGGQQMGRDPLARENEELEKEAEELEQENAELEQEVLELESRNDRLRKEVEQLERELDTLRGIFRQLPESSLVKAMGNCA
notes: Built from the statement that DP- replaces DP-GGG; also called DP- cap
B9: 1heptad-F (designed binder)
chain: ASMTGGQQMGRDPGGGLEQENAELEQEVLELESRNDRLRKEVEQLERELDTLRGIFRQLPESSLVKAMGNCA
B10: AcidMax (Max with a polyglutamic acid extension) (designed binder)
chain: MASMTGGQQMGRDPDEEEDDEEELEELEDSFHSLRDSVPSLQGEKASRAQILDKATEYIQYMRRKNHTHQQDIDDLKRQNALLEQQVRALEKARSSAQLQT
B11: VBP-C/EBP chimeric protein (other)
chain: ASMTGGQQMGRDPLEEKVFVPDEQKDEKYWTRRKKNNVAAKRSRDARRLKENQTQQKVLELTSDNDRLRKRVEQLSRELDTLRGIFRQLPESSLVKAMGNCA
B12: c-Jun (unmodified) (other, UniProt P05412 241-331, looked up)
chain: PLSPIDMESQERIKAERKRMRNRIAASKCRKRKLERIARLEEKVKTLKAQNSELASTANMLREQVAQLKQKVMNHVNSGCQLMLTQQLQTF
B13: 4heptadCREB (CREB with the 4heptad acidic extension appended at the amino terminus) (designed binder)
chain: ASMTGGQQMGRDPDLEQRAEELARENEELEKEAEELEQENAELENRVAVLENQNKTLIEELKALKDLYCHKSD
notes: also called 4hep-CREB
B14: New4hepCREB (CREB with the new 4heptad extension, asparagine changed to leucine) (designed binder)
chain: MDYKDDDDKHMASMTGGQQMGRDPDLEQRAEELARENEELEKEAEELEQELAELENRVAVLENQNKTLIEELKALKDLYCHKSD
notes: also called New4heptadCREB; CMV500-4heptadCREB
B15: new4heptadFos (4heptadFos with one asparagine of the acidic region changed to leucine) (designed binder)
chain: ASMTGGQQMGRDPDLEQRAEELARENEELEKEAEELEQELAELEAETDQLEDEKSALQTEIANLLKEKEKLEFILAAHRPACKIP
notes: also called N4heptad-Fos

Series [1] concerns the molecule itself. The experiment in a line: homodimer, dimerization study of FIG. 9.
Series [2] addresses T1, C/EBP bZIP domain (GCN4-C/EBP chimeric …). As to the kind of experiment: thermal stability as heterodimers with C/EBP.
Series [3] shares this target. As to the kind of experiment: CD thermal melt, equimolar mixture, 150 mM KCl. As for the experimental part:
(§1) Table 1 presents the melting temperature (T_m,° C.), $\Delta G$ and k_d at 25° C. for CD thermal melts of a variety of proteins either as homodimers or an equimolar mixture of two proteins. […] The (L) denotes 'low' salt conditions (50 mM KCl, 25 mM Tris pH 8.0, 0.5 mM EDTA, 1 mM DTT) and the (H) denotes regular salt conditions (12.5 mM potassium phosphate, pH 7.4, 150 mM KCl, 0.25 mM EDTA, and 0.5 mM DTT). The latter conditions were used in Table 2. "0heptad-F" represents the F zipper with the basic region deleted. The RMS error in $\Delta G$ is 0.2 kcal/mol and 0.5 kcal/mol for homo- and heterodimers respectively.
(§2) The two chimeras were mixed with the four different length acidic extensions appended to the F zipper and their stability was determined from CD thermal melts.

Series [4] has the same target. As to the kind of experiment: CD thermal melt, equimolar mixture, 150 mM KCl, Kd at 25 C. On the procedure: as §1, §2
Series [5] deals with the molecule itself. As to the kind of experiment: CD thermal melt, homodimer, 150 mM KCl. As for the experimental part: (§3) CD analyses were performed as described in Materials and Methods of D. Krylov et al., 1994, *EMBO J.,* 13:2849–2861. T_m values were calculated as described in D, Krylov et al., 1994, Ibid, converted to K_{d(25)} and $\Delta G(25)$ using a $\Delta C_p$ of –0.96 kcal/mol° C.^-1 calculated from a T_m versus $\Delta H$ plot for all of the proteins as described herein. All thermal melts were reversible.
as §1

The target of series [6] is B11. As to the kind of experiment: CD thermal melt, equimolar mixture, 150 mM KCl. As for the experimental part: as §1, §2
For series [7], the target named is B5. As to the kind of experiment: CD thermal melt, equimolar mixture, 150 mM KCl. As for the experimental part: as §1, §2
Series [8] deals with the molecule itself. The experiment in a line: CD thermal melt, homodimer, 150 mM KCl, Kd at 25 C. On the procedure:
as §3, §1

The target of series [9] is B11. The experiment in a line: CD thermal melt, equimolar mixture, 150 mM KCl, Kd at 25 C. As for the experimental part: as §1, §2
In series [10] the target is B5. The series is described as above. On the procedure:
as §1, §2

In series [11] the target is B12. The experiment in a line: thermal melt of the mixture (FIG. 4).
The target in series [12] is B12. As to the kind of experiment: from thermal melts of FIG. 4, Kd at 37 C.
Series [13] has as its target T1, C/EBP bZIP domain (GCN4-C/EBP chimeric …). As to the kind of experiment: thermal melt of the mixture (FIG. 1).
Series [14] concerns the target B11. The experiment in a line: thermal melt of the mixture (FIG. 1).
The target of series [15] is B5. The experiment in a line: thermal melt of the mixture (FIG. 1).
Series [16] has as its target T1, C/EBP bZIP domain (GCN4-C/EBP chimeric …). The experiment in a line: CD thermal melts.
The target in series [17] is B11. As to the kind of experiment: CD thermal melts.
For series [18], the target named is B5. The experiment in a line: CD thermal melts.
For a further series, the target named is c-Myc bHLH protein (murine, UniProt P01108 368-454). As to the kind of experiment: heterodimer with c-Myc, dimerization study of FIG. 9.
Series [19] deals with the molecule itself. The experiment in a line: from thermal melts of FIG. 4, Kd at 37 C.
Series [20] addresses T2, CREB (unmodified). The experiment in a line: thermal melt, CREB with 4heptadCREB (FIG. 3).
In series [21] the target is T2, CREB (unmodified). As to the kind of experiment: thermal melt of the mixture (FIG. 3).

What is called Kd is the free concentration of one partner at which half of the binding sites on the other are occupied at equilibrium, for simple one-to-one binding. One may read the Tm as the temperature at the midpoint of the melting transition.

Sequence of c-Myc bHLH protein (P01108 368-454 limits assumed, form in doubt): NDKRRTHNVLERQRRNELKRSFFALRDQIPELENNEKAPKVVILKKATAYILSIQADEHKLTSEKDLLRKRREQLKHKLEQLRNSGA

As for B1, the Kd in [1] came to 100 nM.

As to B2, the “fold stability against the DP-GGG cap” value in series [2] worked out at 3 fold.

With B3, in series [3], the Tm amounted to 61 °C and the “deltaG at 25 C” value is -12.6 kcal/mol. Besides, the dissociation constant Kd in [4] turned out to be 0.6 nM.

In the case of B4, the “deltaG at 25 C” value in series [5] is -7.4 kcal/mol; in [3], -13.9 kcal/mol; in series [6], -13.8 kcal/mol; in series [7], -13.6 kcal/mol. Besides, the results for the melting temperature (Tm) in series [3], in [6] and in series [7] were 63.6 °C, 62.8 °C and 63.1 °C, respectively. Moreover, the Kd was 4000 nM in [8], 0.07 nM in [4], 0.09 nM in series [9] and 0.1 nM in [10].

Take B5: in [5], the “deltaG at 25 C” value is -10.6 kcal/mol. The same molecule came in with a dissociation constant (Kd) in series [8] of 20 nM.

Consider B6, for which, in the series with c-Jun (unmodified) [11], the midpoint of thermal melting (Tm) stood at 50 °C. The Kd with c-Jun (unmodified) [12] came to 200 nM.

Take B7: the “melting temperature (given as ellipticity)” value in series [13], in series [14] and in series [15] was 65 °C in each case. Further, the “deltaG at 25 C” value was -6.3 kcal/mol in series [5], -14.2 kcal/mol in [3], -14.8 kcal/mol in series [6] and -14.5 kcal/mol in series [7]. For the same molecule, the melting temperature (Tm) stood at 64.8 °C in series [3], 65.2 °C in series [6] and 65 °C in series [7]. Also, the Kd in series [8] is 20000 nM; in series [4], 0.04 nM; in [9], 0.01 nM; in series [10] it was 0.03 nM.

Regarding B8, the “fold stability against the DP-GGG cap” value in series [2] worked out at 3 fold.

As for B9, the entries for the “stabilization against 0heptad-F” value in [16], in series [17] and in series [18] were 1.7 kcal/mol, 0.9 kcal/mol and 1.3 kcal/mol, respectively. Also, the “deltaG at 25 C” value in series [5] is -8 kcal/mol; in series [3], -13.5 kcal/mol; in series [6] it was -13.1 kcal/mol; in series [7] it was -13.2 kcal/mol. Moreover, the Tm in [3] was 60.8 °C; in series [6] it was 60.5 °C; in series [7] it was 62 °C. In addition, the Kd is 1000 nM in series [8], 0.1 nM in [4], 0.3 nM in series [9] and 0.2 nM in series [10].

For the molecule B10, the results for the Kd (in series [1]; with c-Myc bHLH protein) were 30 nM and 0.002 nM, respectively.

Consider B11, for which the “deltaG at 25 C” value in series [5] was -11.1 kcal/mol. The affinity in series [8], expressed as Kd, was 8 nM.

The molecule B12 came in with an equilibrium dissociation constant (Kd) in series [19] of 20000 nM.

On to B13, for which the midpoint of thermal melting (Tm) with CREB (unmodified) [20] was found to be 53 °C.

As to B14, the midpoint of thermal melting (Tm) in the series with CREB (unmodified) [21] was determined as 69.5 °C.

For B15, the Tm with c-Jun (unmodified) [11] is 72 °C.
